From publication doi:10.1101/2023.10.24.563710 (bioRxiv, 2023)

Target: the molecule itself
Experiment: cryo-EM structure

Row | Protein | stoichiometry N
1 | P116 ectodomain (residues 30-957), C-terminally shortened and HIS-tagged (domain or fragment, Mycoplasma pneumoniae, UniProt P75556 30-957, looked up) NKTHQVEHESEQSDFQDIRFGLNSVKLPKAQPAAATRITVENGTDKLVNYKSSPQQLFLAKNALKDKLQGEFDKFLSDAKAFPALTADLQEWVDQQLFNPNQSFFDLSAPRSNFTLSSDKKASLDFIFRFTNFTESVQLLKLPEGVSVVVDSKQSFDYYVNASAQKLLVLPLSLPDYTLGLNYMFDHITLNGKVVNKFSFNPFKTNLNLAFSNVYNGVDVFEAQKNLVGKGKYLNTHVKAEDVKKDVNANIKNQFDIAKIIAELMGKALKEFGNQQEGQPLSFLKVMDKVKEDFEKLFNLVRPGLGKFVKDLIQSSSQAENKITVYKLIFDNKKTILNLLKELSIPELNSSLGLVDVLFDGITDSDGLYERLQSFKDLIVPAVKTNEKTAALSPLIEELLTQKDTYVFDLIQKHKGILTNLLKNFLADFQKSTPFMADQVAIFTELFDNEGAFDLFGEADFVDKIAELFLTKRTVKNGEKIETKDSLLVTSLKSLLGEKVAALGDLLDSYIFKNELLNRSVEVAKAEAKDTKGATDYKKEQAKALKKLFKHIGENTLSKTNLDKITLKEVKNTENVELEETETTLKVKKLDVEYKVELGNFEIKNGLIKAMLEFLPDTKDLETTLDKLLFKGESYKAMKDKYIKEGFPGYGWAKGVVPGAFESIENTFKSAIDKTKSIRDLFGDMLFGNDLSSVKETDSFITLGGSFDIKYGGENLNVLPAYYSLINSEIGYQIIGVDTTIDATKVKVELKNKEYKGKSPAINGQVKLSQSFFNVWTNMFDSITKQIFQKKYEFKDNIQVFARNEDNTSRLELDISDPEQRVIPFAFVDGFGIQLKAVDKNITKEAGNTEPKSPVIQLYEALNKEKDQKQQSKQSPKQLDTKTQLGYLLKLGDNWSKDDYKSLIDDTIINNNYLEASFNSKITVDRLG | 2
2 | ΔN-P116 (residues 246-818), truncated N-terminal domain and F-loop (domain or fragment, Mycoplasma pneumoniae, UniProt P75556 246-818, looked up) GVDVFEAQKNLVGKGKYLNTHVKAEDVKKDVNANIKNQFDIAKIIAELMGKALKEFGNQQEGQPLSFLKVMDKVKEDFEKLFNLVRPGLGKFVKDLIQSSSQAENKITVYKLIFDNKKTILNLLKELSIPELNSSLGLVDVLFDGITDSDGLYERLQSFKDLIVPAVKTNEKTAALSPLIEELLTQKDTYVFDLIQKHKGILTNLLKNFLADFQKSTPFMADQVAIFTELFDNEGAFDLFGEADFVDKIAELFLTKRTVKNGEKIETKDSLLVTSLKSLLGEKVAALGDLLDSYIFKNELLNRSVEVAKAEAKDTKGATDYKKEQAKALKKLFKHIGENTLSKTNLDKITLKEVKNTENVELEETETTLKVKKLDVEYKVELGNFEIKNGLIKAMLEFLPDTKDLETTLDKLLFKGESYKAMKDKYIKEGFPGYGWAKGVVPGAFESIENTFKSAIDKTKSIRDLFGDMLFGNDLSSVKETDSFITLGGSFDIKYGGENLNVLPAYYSLINSEIGYQIIGVDTTIDATKVKVELKNKEYKGKSPAINGQVKLSQSFFNVWTNMFDSITKQIFQ | 2
